{"source": "paper PMC9256674", "about": "“Structures of LIG1 that engage with mutagenic mismatches inserted by polβ in base excision repair”", "molecules": {"B1": {"name": "nick DNA 3'-A:T (dsDNA)", "DNA 1": "GCTGATGCGTA", "DNA 2": "GTCGGAC", "DNA 3": "GTCCGACTACGCATCAGC", "modifications": "5'-phosphate on downstream strand (GTCGGAC); adenylated (5'-AMP) in the crystal"}, "B2": {"name": "nick DNA 3'-A:C (dsDNA)", "DNA 1": "GCTGATGCGTA", "DNA 2": "GTCGGAC", "DNA 3": "GTCCGACCACGCATCAGC", "modifications": "5'-phosphate on downstream strand (GTCGGAC), not adenylated"}, "B3": {"name": "nick DNA 3'-G:T (dsDNA)", "DNA 1": "GCTGATGCGTG", "DNA 2": "GTCGGAC", "DNA 3": "GTCCGACTACGCATCAGC", "modifications": "5'-phosphate on downstream strand (GTCGGAC); adenylated (5'-AMP) in the crystal"}}, "key": {"[1]": {"biological_target": "AP-endonuclease 1 (human) (UniProt P27695)", "sequence (P27695 whole entry)": "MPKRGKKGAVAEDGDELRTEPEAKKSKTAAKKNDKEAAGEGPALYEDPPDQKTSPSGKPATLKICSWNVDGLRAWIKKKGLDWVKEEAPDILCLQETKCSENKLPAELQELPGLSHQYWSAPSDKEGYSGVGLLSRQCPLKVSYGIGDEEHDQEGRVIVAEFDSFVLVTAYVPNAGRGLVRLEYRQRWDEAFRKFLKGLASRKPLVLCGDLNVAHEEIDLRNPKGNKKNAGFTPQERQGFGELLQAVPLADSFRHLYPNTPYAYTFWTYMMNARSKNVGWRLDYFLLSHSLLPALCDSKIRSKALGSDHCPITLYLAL", "test": "SPR; Biacore X-100; APE1 amine-coupled on a CM5 chip, 25 °C; LIG1 0-1.6 µM injected as analyte in 20 mM HEPES pH 7.4, 150 mM NaCl, 3 mM EDTA, 0.005% Surfactant P20; 1:1 (Langmuir) fit"}, "[2]": {"biological_target": "T1, LIG1 EE/AA (C-terminal, Δ261) (Homo sapiens, UniProt P18858 262-919, E346A;E592A)", "T1 sequence (P18858 262-919 E346A/E592A)": "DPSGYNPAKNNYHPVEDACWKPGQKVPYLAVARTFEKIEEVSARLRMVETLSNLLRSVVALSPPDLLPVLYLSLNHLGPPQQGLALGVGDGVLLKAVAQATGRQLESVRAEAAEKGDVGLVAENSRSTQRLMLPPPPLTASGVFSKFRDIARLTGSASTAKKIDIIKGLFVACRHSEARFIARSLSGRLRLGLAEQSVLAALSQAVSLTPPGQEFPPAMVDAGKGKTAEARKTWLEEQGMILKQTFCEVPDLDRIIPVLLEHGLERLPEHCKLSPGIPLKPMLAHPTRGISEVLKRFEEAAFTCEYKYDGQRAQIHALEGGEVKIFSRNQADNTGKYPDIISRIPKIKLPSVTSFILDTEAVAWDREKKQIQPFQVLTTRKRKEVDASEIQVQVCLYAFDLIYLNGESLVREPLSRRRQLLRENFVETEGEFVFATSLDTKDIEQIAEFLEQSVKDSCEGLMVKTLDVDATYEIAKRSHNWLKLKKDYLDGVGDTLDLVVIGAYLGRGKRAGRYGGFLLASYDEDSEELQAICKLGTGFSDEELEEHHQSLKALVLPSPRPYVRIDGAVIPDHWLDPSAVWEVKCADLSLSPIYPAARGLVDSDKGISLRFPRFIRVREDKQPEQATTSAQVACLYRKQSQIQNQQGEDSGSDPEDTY", "test": "X-ray crystallography (2.9 Å); AMP as DNA-AMP (step 2); no Mg2+; Crystallization conditions not in the material; LIG1 final purification buffer 20 mM Tris-HCl pH 7.0, 200 mM NaCl, 1 mM DTT; storage 25 mM Tris-HCl pH 7.0, 200", "settings": "protein: recombinant; nicked duplex: 11-mer upstream + 7-mer 5'-P downstream on 18-mer template; blunt ends; A:T at nick 3'-end"}, "[3]": {"biological_target": "T1, LIG1 EE/AA (C-terminal, Δ261)", "test": "X-ray crystallography (2.8 Å); AMP covalently on K568 (LIG1-AMP, step 1); no Mg2+; Crystallization conditions not in the material; LIG1 final purification buffer 20 mM Tris-HCl pH 7.0, 200 mM NaCl, 1 mM DTT; storage 25 mM Tris-HCl pH 7.0, 200", "settings": "protein: recombinant; nicked duplex: 11-mer upstream + 7-mer 5'-P downstream on 18-mer template; blunt ends; A:C wobble mismatch at nick 3'-end"}, "[4]": {"biological_target": "T1, LIG1 EE/AA (C-terminal, Δ261)", "test": "X-ray crystallography (3.0 Å); AMP as DNA-AMP (step 2); no Mg2+; Crystallization conditions not in the material; LIG1 final purification buffer 20 mM Tris-HCl pH 7.0, 200 mM NaCl, 1 mM DTT; storage 25 mM Tris-HCl pH 7.0, 200", "settings": "protein: recombinant; nicked duplex: 11-mer upstream + 7-mer 5'-P downstream on 18-mer template; blunt ends; G:T wobble mismatch at nick 3'-end"}}, "data": [{"molecule": "DNA ligase I (from UniProt P18858 1-919) (enzyme)", "values": [{"measurement": "Kd", "setting": "[1]", "result": 117, "unit": "nM"}]}, {"molecule": "B1", "values": [{"measurement": "binding result", "setting": "[2]", "result": "binds"}]}, {"molecule": "B2", "values": [{"measurement": "binding result", "setting": "[3]", "result": "binds"}]}, {"molecule": "B3", "values": [{"measurement": "binding result", "setting": "[4]", "result": "binds"}]}]}
